We go through six sequences from the supplement of paper PMC5998384.

Data set [1] concerns HeLa Kyoto. Kind of data set: melting temperature (median over replicates), in situ; higher = more thermally stable.
For data set [2], the system named is HeLa Kyoto. Kind of data set: thermal stability score vs G1/S (z-score of summed log2 fold changes over temperatures); higher = more thermally stable than in G1/S.
Setting [3] is: cell cycle stage: early G1 (4.5 h after nocodazole release).
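For melting temperature (median over replicates), in situ in this document: HeLa Kyoto cells synchronized by double thymidine or nocodazole block, proteins quantified by TMT10plex mass spectrometry, three independent biological replicates.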
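For thermal stability score vs G1/S (z-score of summed log2 fold changes over temperatures) in this document: synchronized HeLa Kyoto cells, proteins quantified by TMT10plex mass spectrometry, three biological replicates, mitosis taken 0.5 h after nocodazole release, G1/S directly after double thymidine block.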

On to “MAIAQLATEYVFSDFLLKEPTEPKFKGLRLELAVDKMVTCIAVGLPLLLISLAFAQEISIGTQISCFSPSSFSWRQAAFVDSYCWAAVQQKNSLQSESGNLPLWLHKFFPYILLLFAILLYLPPLFWRFAAAPHICSDLKFIMEELDKVYNRAIKAAKSARDLDMRDGACSVPGVTENLGQSLWEVSESHFKYPIVEQYLKTKKNSNNLIIKYISCRLLTLIIILLACIYLGYYFSLSSLSDEFVCSIKSGILRNDSTVPDQFQCKLIAVGIFQLLSVINLVVYVLLAPVVVYTLFVPFRQKTDVLKVYEILPTFDVLHFKSEGYNDLSLYNLFLEENISEVKSYKCLKVLENIKSSGQGIDPMLLLTNLGMIKMDVVDGKTPMSAEMREEQGNQTAELQGMNIDSETKANNGEKNARQRLLDSSC [PANX1]”, for which the melting temperature in the data set on HeLa Kyoto [1] (cell cycle stage: G1/S) is 57.4 °C; with HeLa Kyoto [1] (cell cycle stage: mitosis), 55.7 °C. The thermal stability score with HeLa Kyoto [2] (setting [3]) and with HeLa Kyoto [2] (cell cycle stage: mitosis) was -1.3 in each case.

“MASASSGPSSSVGFSSFDPAVPSCTLSSAASGIKRPMASEVLEARQDSYISLVPYASGMPIKKIGHRSVDSSGETTYKKTTSSALKGAIQLGITHTVGSLSTKPERDVLMQDFYVVESIFFPSEGSNLTPAHHYNDFRFKTYAPVAFRYFRELFGIRPDDYLYSLCSEPLIELCSSGASGSLFYVSSDDEFIIKTVQHKEAEFLQKLLPGYYMNLNQNPRTLLPKFYGLYCVQAGGKNIRIVVMNNLLPRSVKMHIKYDLKGSTYKRRASQKEREKPLPTFKDLDFLQDIPDGLFLDADMYNALCKTLQRDCLVLQSFKIMDYSLLMSIHNIDHAQREPLSSETQYSVDTRRPAPQKALYSTAMESIQGEARRGGTMETDDHMGGIPARNSKGERLLLYIGIIDILQSYRFVKKLEHSWKALVHDGDTVSVHRPGFYAERFQRFMCNTVFKKIPLKPSPSKKFRSGSSFSRRAGSSGNSCITYQPSVSGEHKAQVTTKAEVEPGVHLGRPDVLPQTPPLEEISEGSPIPDPSFSPLVGETLQMLTTSTTLEKLEVAESEFTH [PIP5K1A]”: the results for the melting temperature in the data set with HeLa Kyoto [1] (cell cycle stage: G1/S) and in the data set with HeLa Kyoto [1] (cell cycle stage: mitosis) were 51.4 °C and 51.5 °C, respectively. For the same sequence, the values for the thermal stability score in the data set with HeLa Kyoto [2] (setting [3]) and in the data set with HeLa Kyoto [2] (cell cycle stage: mitosis) were 1.38 and 1.13, respectively.

On to “MATKEKLQCLKDFHKDILKPSPGKSPGTRPEDEAEGKPPQREKWSSKIDFVLSVAGGFVGLGNVWRFPYLCYKNGGGAFLIPYFIFLFGSGLPVFFLEIIIGQYTSEGGITCWEKICPLFSGIGYASVVIVSLLNVYYIVILAWATYYLFQSFQKELPWAHCNHSWNTPHCMEDTMRKNKSVWITISSTNFTSPVIEFWERNVLSLSPGIDHPGSLKWDLALCLLLVWLVCFFCIWKGVRSTGKVVYFTATFPFAMLLVLLVRGLTLPGAGAGIKFYLYPDITRLEDPQVWIDAGTQIFFSYAICLGAMTSLGSYNKYKYNSYRDCMLLGCLNSGTSFVSGFAIFSILGFMAQEQGVDIADVAESGPGLAFIAYPKAVTMMPLPTFWSILFFIMLLLLGLDSQFVEVEGQITSLVDLYPSFLRKGYRREIFIAFVCSISYLLGLTMVTEGGMYVFQLFDYYAASGVCLLWVAFFECFVIAWIYGGDNLYDGIEDMIGYRPGPWMKYSWAVITPVLCVGCFIFSLVKYVPLTYNKTYVYPNWAIGLGWSLALSSMLCVPLVIVIRLCQTEGPFLVRVKYLLTPREPNRWAVEREGATPYNSRTVMNGALVKPTHIIVETMM [SLC6A6]”, for which the melting temperature with HeLa Kyoto [1] (cell cycle stage: G1/S) is 57.6 °C; in the data set on HeLa Kyoto [1] (cell cycle stage: mitosis) it was 57.2 °C. Also, the thermal stability score was -2.77 with HeLa Kyoto [2] (setting [3]) and -2.51 in the data set on HeLa Kyoto [2] (cell cycle stage: mitosis).

As for “MAYHSGYGAHGSKHRARAAPDPPPLFDDTSGGYSSQPGGYPATGADVAFSVNHLLGDPMANVAMAYGSSIASHGKDMVHKELHRFVSVSKLKYFFAVDTAYVAKKLGLLVFPYTHQNWEVQYSRDAPLPPRQDLNAPDLYIPTMAFITYVLLAGMALGIQKRFSPEVLGLCASTALVWVVMEVLALLLGLYLATVRSDLSTFHLLAYSGYKYVGMILSVLTGLLFGSDGYYVALAWTSSALMYFIVRSLRTAALGPDSMGGPVPRQRLQLYLTLGAAAFQPLIIYWLTFHLVR [YIF1A]”, the melting temperature in the data set with HeLa Kyoto [1] (cell cycle stage: G1/S) turned out to be 57.2 °C. Besides, the thermal stability score with HeLa Kyoto [2] (setting [3]) is -0.13; in the data set with HeLa Kyoto [2] (cell cycle stage: mitosis), -2.04.

“MDLAANEISIYDKLSETVDLVRQTGHQCGMSEKAIEKFIRQLLEKNEPQRPPPQYPLLIVVYKVLATLGLILLTAYFVIQPFSPLAPEPVLSGAHTWRSLIHHIRLMSLPIAKKYMSENKGVPLHGGDEDRPFPDFDPWWTNDCEQNESEPIPANCTGCAQKHLKVMLLEDAPRKFERLHPLVIKTGKPLLEEEIQHFLCQYPEATEGFSEGFFAKWWRCFPERWFPFPYPWRRPLNRSQMLRELFPVFTHLPFPKDASLNKCSFLHPEPVVGSKMHKMPDLFIIGSGEAMLQLIPPFQCRRHCQSVAMPIEPGDIGYVDTTHWKVYVIARGVQPLVICDGTAFSEL [C6ORF89]” returned a melting temperature in the data set on HeLa Kyoto [1] (cell cycle stage: G1/S) of 53.2 °C. Further, the thermal stability score in the data set with HeLa Kyoto [2] (setting [3]) was 0.0285; in the data set on HeLa Kyoto [2] (cell cycle stage: mitosis) it was -2.22.

“MEAAVAPGRDAPAPAASQPSGCGKHNSPERKVYMDYNATTPLEPEVIQAMTKAMWEAWGNPSSPYSAGRKAKDIINAARESLAKMIGGKPQDIIFTSGGTESNNLVIHSVVKHFHANQTSKGHTGGHHSPVKGAKPHFITSSVEHDSIRLPLEHLVEEQVAAVTFVPVSKVSGQAEVDDILAAVRPTTRLVTIMLANNETGIVMPVPEISQRIKALNQERVAAGLPPILVHTDAAQALGKQRVDVEDLGVDFLTIVGHKFYGPRIGALYIRGLGEFTPLYPMLFGGGQERNFRPGTENTPMIAGLGKAAELVTQNCEAYEAHMRDVRDYLEERLEAEFGQKRIHLNSQFPGTQRLPNTCNFSIRGPRLQGHVVLAQCRVLMASVGAACHSDHGDQPSPVLLSYGVPFDVARNALRLSVGRSTTRAEVDLVVQDLKQAVAQLEDQA [SCLY]”: the melting temperature is 55.4 °C with HeLa Kyoto [1] (cell cycle stage: G1/S) and 51.5 °C in the data set with HeLa Kyoto [1] (cell cycle stage: mitosis). The thermal stability score with HeLa Kyoto [2] (setting [3]) was -0.479; in the data set on HeLa Kyoto [2] (cell cycle stage: mitosis), -0.778.
